Values belong to the molecule of their own block, whether it stands above or below them.
Legend:
Rhodococcus sp. [1] = experiment: Activity of Rhodococcus sp. M777 Endoglycoceramidase 2 containing wild type sequence E351S
Rhodococcus sp. [2] = experiment: Ratio of Kcat to Km of Activity of Rhodococcus sp. M777 Endoglycoceramidase 2 containing wild type sequence E351S
[3] = substrate: CCCCCCCCCCCCCC[C@@H](O)[C@@H](O)[C@@H](N)CO; experiment: Ratio of Kcat to Km of Activity of Rhodococcus sp. M777 Endoglycoceramidase 2 V101M K200R mutant
[4] = substrate: CCCCCCCCCCCCC/C=C/[C@@H](O)[C@@H](N)CO; experiment: (§1) Ratio of Kcat to Km of Activity of Rhodococcus sp. M777 Endoglycoceramidase 2 I183F mutant
[5] = substrate: CC(=O)N[C@H]1[C@H](O[C@@H]2[C@H](O[C@]3(C(=O)O)C[C@H](O)[C@@H](NC(C)=O)[C@H]([C@@H](O)[C@@H](O)CO)O3)[C@@H](O)[C@H](O[C@H]3[C@H](O)[C@@H](O)[C@@H](F)O[C@@H]3CO)O[C@@H]2CO)O[C@H](CO)[C@H](O)[C@@H]1O[C@@H]1O[C@H](CO)[C@H](O)[C@H](O)[C@H]1O; experiment: as §1
[6] = substrate: CCCCCCCCCCCCC/C=C/[C@@H](O)[C@@H](N)CO; experiment: (§2) Activity of Rhodococcus sp. M777 Endoglycoceramidase 2 I183F mutant
[7] = substrate: CC(=O)N[C@H]1[C@H](O[C@@H]2[C@H](O[C@]3(C(=O)O)C[C@H](O)[C@@H](NC(C)=O)[C@H]([C@@H](O)[C@@H](O)CO)O3)[C@@H](O)[C@H](O[C@H]3[C@H](O)[C@@H](O)[C@@H](F)O[C@@H]3CO)O[C@@H]2CO)O[C@H](CO)[C@H](O)[C@@H]1O[C@@H]1O[C@H](CO)[C@H](O)[C@H](O)[C@H]1O; experiment: as §2
[8] = substrate: CCCCCCCCCCCCCC[C@@H](O)[C@@H](O)[C@@H](N)CO; experiment: Ratio of Kcat to Km of Activity of Rhodococcus sp. M777 Endoglycoceramidase 2 N148S mutant

Km (Rhodococcus sp. [1]): 770 µM
kcat (Rhodococcus sp. [1]): 0.21 s⁻¹
kcat/Km (Rhodococcus sp. [2]): 273 M⁻¹ s⁻¹
Molecule: CC(=O)N[C@H]1[C@H](O[C@@H]2[C@H](O[C@]3(C(=O)O)C[C@H](O)[C@@H](NC(C)=O)[C@H]([C@@H](O)[C@@H](O)CO)O3)[C@@H](O)[C@H](O[C@H]3[C@H](O)[C@@H](O)[C@@H](F)O[C@@H]3CO)O[C@@H]2CO)O[C@H](CO)[C@H](O)[C@@H]1O[C@@H]1O[C@H](CO)[C@H](O)[C@H](O)[C@H]1O

Km (Rhodococcus sp. [1]): 410 µM
kcat (Rhodococcus sp. [1]): 0.19 s⁻¹
kcat/Km (Rhodococcus sp. [2]): 463 M⁻¹ s⁻¹
Molecule: CCCCCCCCCCCCC/C=C/[C@@H](O)[C@@H](N)CO

B1: Endoglycoceramidase II (Rhodococcus sp), A0ACD6B832 V101M,K200R (protein)
chain: MRRTRLVSLIVTGSLVFGGGVAAAQSSLAASGSGSGSGTALTPSYLKDDDGRSLILRGFNTASSAKSAPDGMPQFTEADLAREYADMGTNFVRFLISWRSMEPAPGVYDQQYLDRVEDRVGWYAERGYKVMLDMHQDVYSGAITPEGNSGNGAGAIGNGAPAWATYMDGLPVEPQPRWELYYIQPGVMRAFDNFWNTTGRHPELVEHYAKAWRAVADRFADNDAVVAYDLMNEPFGGSLQGPAFEAGPLAAMYQRTTDAIRQVDQDTWVCVAPQAIGVNQGLPSGLTKIDDPRAGQQRIAYCPHLYPLPLDIGDGHEGLARTLTDVTIDAWRANTAHTARVLGDVPIILGEFGLDTTLPGARDYIERVYGTAREMGAGVSYWSSDPGPWGPYLPDGTQTLLVDTLNKPYPRAVAGTPTEWSSTSDRLQLTIEPDAAITAPTEIYLPEAGFPGDVHVEGADVVGWDRQSRLLTVRTPADSGNVTVTVTPAA
kcat/Km [3]: 3.1 M⁻¹ s⁻¹

B2: Endoglycoceramidase II (Rhodococcus sp), A0ACD6B832 I183F (protein)
chain: MRRTRLVSLIVTGSLVFGGGVAAAQSSLAASGSGSGSGTALTPSYLKDDDGRSLILRGFNTASSAKSAPDGMPQFTEADLAREYADMGTNFVRFLISWRSVEPAPGVYDQQYLDRVEDRVGWYAERGYKVMLDMHQDVYSGAITPEGNSGNGAGAIGNGAPAWATYMDGLPVEPQPRWELYYFQPGVMRAFDNFWNTTGKHPELVEHYAKAWRAVADRFADNDAVVAYDLMNEPFGGSLQGPAFEAGPLAAMYQRTTDAIRQVDQDTWVCVAPQAIGVNQGLPSGLTKIDDPRAGQQRIAYCPHLYPLPLDIGDGHEGLARTLTDVTIDAWRANTAHTARVLGDVPIILGEFGLDTTLPGARDYIERVYGTAREMGAGVSYWSSDPGPWGPYLPDGTQTLLVDTLNKPYPRAVAGTPTEWSSTSDRLQLTIEPDAAITAPTEIYLPEAGFPGDVHVEGADVVGWDRQSRLLTVRTPADSGNVTVTVTPAA
kcat/Km [4]: 527 M⁻¹ s⁻¹
kcat/Km [5]: 135 M⁻¹ s⁻¹
Km [6]: 180 µM
kcat [6]: 0.09 s⁻¹
Km [7]: 180 µM
kcat [7]: 0.02 s⁻¹

B3: Endoglycoceramidase II (Rhodococcus sp), A0ACD6B832 N148S (protein)
chain: MRRTRLVSLIVTGSLVFGGGVAAAQSSLAASGSGSGSGTALTPSYLKDDDGRSLILRGFNTASSAKSAPDGMPQFTEADLAREYADMGTNFVRFLISWRSVEPAPGVYDQQYLDRVEDRVGWYAERGYKVMLDMHQDVYSGAITPEGSSGNGAGAIGNGAPAWATYMDGLPVEPQPRWELYYIQPGVMRAFDNFWNTTGKHPELVEHYAKAWRAVADRFADNDAVVAYDLMNEPFGGSLQGPAFEAGPLAAMYQRTTDAIRQVDQDTWVCVAPQAIGVNQGLPSGLTKIDDPRAGQQRIAYCPHLYPLPLDIGDGHEGLARTLTDVTIDAWRANTAHTARVLGDVPIILGEFGLDTTLPGARDYIERVYGTAREMGAGVSYWSSDPGPWGPYLPDGTQTLLVDTLNKPYPRAVAGTPTEWSSTSDRLQLTIEPDAAITAPTEIYLPEAGFPGDVHVEGADVVGWDRQSRLLTVRTPADSGNVTVTVTPAA
kcat/Km [8]: 2.1 M⁻¹ s⁻¹

From ChEMBL document CHEMBL1212722, “Designer enzymes for glycosphingolipid synthesis by directed evolution” (Nat Chem Biol, 2009)
